B1: Transcription factor p65 (Mus musculus), Q04207 (parent)
chain: MDDLFPLIFPSEPAQASGPYVEIIEQPKQRGMRFRYKCEGRSAGSIPGERSTDTTKTHPTIKINGYTGPGTVRISLVTKDPPHRPHPHELVGKDCRDGYYEADLCPDRSIHSFQNLGIQCVKKRDLEQAISQRIQTNNNPFHVPIEEQRGDYDLNAVRLCFQVTVRDPAGRPLLLTPVLSHPIFDNRAPNTAELKICRVNRNSGSCLGGDEIFLLCDKVQKEDIEVYFTGPGWEARGSFSQADVHRQVAIVFRTPPYADPSLQAPVRVSMQLRRPSDRELSEPMEFQYLPDTDDRHRIEEKRKRTYETFKSIMKKSPFNGPTEPRPPTRRIAVPTRNSTSVPKPAPQPYTFPASLSTINFDEFSPMLLPSGQISNQALALAPSSAPVLAQTMVPSSAMVPLAQPPAPAPVLTPGPPQSLSAPVPKSTQAGEGTLSEALLHLQFDADEDLGALLGNSTDPGVFTDLASVDNSEFQQLLNQGVSMSHSTAEPMLMEYPEAITRLVTGSQRPPDPAPTPLGTSGLPNGLSGDEDFSSIADMDFSALLSQISS
partner: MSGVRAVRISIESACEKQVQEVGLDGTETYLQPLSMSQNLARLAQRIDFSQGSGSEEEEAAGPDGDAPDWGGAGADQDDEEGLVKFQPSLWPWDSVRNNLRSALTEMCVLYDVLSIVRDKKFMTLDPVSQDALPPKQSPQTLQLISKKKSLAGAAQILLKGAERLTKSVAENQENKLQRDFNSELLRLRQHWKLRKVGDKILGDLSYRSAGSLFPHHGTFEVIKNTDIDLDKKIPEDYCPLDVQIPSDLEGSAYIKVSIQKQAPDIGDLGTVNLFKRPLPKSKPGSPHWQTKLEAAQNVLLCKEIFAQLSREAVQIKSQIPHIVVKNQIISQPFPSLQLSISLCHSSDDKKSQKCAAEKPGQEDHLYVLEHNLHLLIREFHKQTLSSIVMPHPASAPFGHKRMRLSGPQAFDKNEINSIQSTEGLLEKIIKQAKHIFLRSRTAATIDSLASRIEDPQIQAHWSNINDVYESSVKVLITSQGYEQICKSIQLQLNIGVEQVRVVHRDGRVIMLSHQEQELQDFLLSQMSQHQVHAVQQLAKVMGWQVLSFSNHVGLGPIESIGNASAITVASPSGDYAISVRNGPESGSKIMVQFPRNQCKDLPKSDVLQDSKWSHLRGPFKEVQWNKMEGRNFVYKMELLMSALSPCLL

Variants of: B1
Details: with med17_mouse Med17, Q8VCD5

Effect of a mutation on the interaction, disrupting interaction:
MDDLFPLIFPSEPAQASGPYVEIIEQPKQRGMRFRYKCEGRSAGSIPGERSTDTTKTHPTIKINGYTGPGTVRISLVTKDPPHRPHPHELVGKDCRDGYYEADLCPDRSIHSFQNLGIQCVKKRDLEQAISQRIQTNNNPFHVPIEEQRGDYDLNAVRLCFQVTVRDPAGRPLLLTPVLSHPIFDNRAPNTAELKICRVNRNSGSCLGGDEIFLLCDKVQKEDIEVYFTGPGWEARGSFSQADVHRQVAIVFRTPPYADPSLQAPVRVSMQLRRPSDRELSEPMEFQYLPDTDDRHRIEEKRKRTYETFKSIMKKSPFNGPTEPRPPTRRIAVPTRNSTSVPKPAPQPYTFPASLSTINFDEFSPMLLPSGQISNQALALAPSSAPVLAQTMVPSSAMVPLAQPPAPAPVLTPGPPQSLSAPVPKSTQAGEGTLSEALLHLQFDADEDLGALLGNSTDPGVFTDLASVDNSEFQQLLNQGVSMSHSTAEPMLMEYPEAITRLVTGSQRPPDPAPTPLGTSGLPNGLSGDEDFSSAAASAAAALLSQISS [I535A;D537A;M538S;D539A;F540A;S541A]
MDDLFPLIFPSEPAQASGPYVEIIEQPKQRGMRFRYKCEGRSAGSIPGERSTDTTKTHPTIKINGYTGPGTVRISLVTKDPPHRPHPHELVGKDCRDGYYEADLCPDRSIHSFQNLGIQCVKKRDLEQAISQRIQTNNNPFHVPIEEQRGDYDLNAVRLCFQVTVRDPAGRPLLLTPVLSHPIFDNRAPNTAELKICRVNRNSGSCLGGDEIFLLCDKVQKEDIEVYFTGPGWEARGSFSQADVHRQVAIVFRTPPYADPSLQAPVRVSMQLRRPSDRELSEPMEFQYLPDTDDRHRIEEKRKRTYETFKSIMKKSPFNGPTEPRPPTRRIAVPTRNSTSVPKPAPQPYTFPASLSTINFDEFSPMLLPSGQISNQALALAPSSAPVLAQTMVPSSAMVPLAQPPAPAPVLTPGPPQSLSAPVPKSTQAGEGTLSEALLHLQFDADEDLGALLGNSTDPGVFTDLASVDNSEFQQLLNQGVSMSHSTAEPMLMEYPEAITRLVTGSQRPPDPAPTPLGTSGLPNGLSGDEDFSSIADMAASALLSQISS [D539A;F540A]
MDDLFPLIFPSEPAQASGPYVEIIEQPKQRGMRFRYKCEGRSAGSIPGERSTDTTKTHPTIKINGYTGPGTVRISLVTKDPPHRPHPHELVGKDCRDGYYEADLCPDRSIHSFQNLGIQCVKKRDLEQAISQRIQTNNNPFHVPIEEQRGDYDLNAVRLCFQVTVRDPAGRPLLLTPVLSHPIFDNRAPNTAELKICRVNRNSGSCLGGDEIFLLCDKVQKEDIEVYFTGPGWEARGSFSQADVHRQVAIVFRTPPYADPSLQAPVRVSMQLRRPSDRELSEPMEFQYLPDTDDRHRIEEKRKRTYETFKSIMKKSPFNGPTEPRPPTRRIAVPTRNSTSVPKPAPQPYTFPASLSTINFDEFSPMLLPSGQISNQALALAPSSAPVLAQTMVPSSAMVPLAQPPAPAPVLTPGPPQSLSAPVPKSTQAGEGTLSEALLHLQFDADEDLGALLGNSTDPGVFTDLASVDNSEFQQLLNQGVSMSHSTAEPMLMEYPEAITRLVTGSQRPPDPAPTPLGTSGLPNGLSAAASAAAIADMDFSALLSQISS [G528A;D529A;E530A;D531S;F532A;S533A;S534A]

Source: IntAct's records for PubMed 19338389
